Laboratory results reported in patent US20140335146A1.

What was measured:
[1] = target: collagen-exposing bone material of epiphysis (rat femur, 0.6 N hydrochloric acid for 18 hours) (rat (Wistar)); assay: depletion from supernatant, SDS-PAGE of supernatant (FIG. 3B)
[2] = target: collagen-exposing bone material of diaphysis (rat femur, 0.6 N hydrochloric acid for 18 hours) (rat (Wistar)); assay: depletion from supernatant, SDS-PAGE of supernatant (FIG. 4B)

bFGF-PKD-CBD fusion protein
amount of bone material at which the fusion protein (1.16 nmol) in the supernatant nearly disappeared [1]: 40 mg
amount of bone material at which the fusion protein (1.16 nmol) in the supernatant nearly disappeared [2]: 80 mg
